Test results as given in patent US20110117012A1, “RADIOLABELED GALLIUM COMPLEXES, METHODS FOR SYNTHESIS AND USE FOR PET IMAGING OF EGFR EXPRESSION IN MALIGNANT TUMORS” (priority 2003, published 2011).
Entries after “also recorded” stand apart in the source; their conditions may differ. Read-outs that look alike come from different tables or passages of the source.

Experiments:
[1] = assay type: physicochemical
Experimental: Analytical liquid chromatography (LC) was performed using a HPLC system from Beckman (Fullerton, Calif., USA) consisting of a 126 pump, a 166 UV detector and a radiation detector coupled in series. Data acquisition and handling was performed using the Beckman System Gold Nouveau Chromatography Software Package. The column used was a Vydac RP 300 Å HPLC column (Vydac, USA) with the dimensions 150 mm×4.6 mm, 5 μm particle size. The applied gradient elution had the following parameters: A=10 mM TFA; B=70% acetonitrile (MeCN), 30% H2O, 10 mM TFA with UV-detection at 220 nm; flow was 1.2 mL/min; 0-2 min isocratic 20% B, 20-90% B linear gradient 8 min, 90-20% B linear gradient 2 min The quantity of ^68Ga-DOTA-hEGF and radio-impurities retained on the column could be obtained by measuring the activity of the sample injected on the column and the fractions collected from the outlet with a crystal scintillation counter. The overall loss on the system was 10%. The measured activity of the fractions of ^68Ga-DOTA-hEGF and hydrophilic radio-impurities were in agreement with the respective values obtained from the HPLC chromatograms. […]
The microwave-accelerated labeling of the conjugates (Scheme 1) was performed using a non-concentrated or a pre-concentrated generator ^68Ga-eluate. […] Pre-concentration of eluate allowed to obtain specific radioactivity of 28 MBq/nmol. […]

A431 cells [2] = assay: Cellular internalization by acid wash, A431 cells; assay type: cell-based, human
Description: (§1) The human squamous carcinoma cell line A431 (ATCC, CLR 1555, Rocksville, Md., USA) and the malignant glioma cell line U343MGaC12:6 (Westermark B, Magnusson A, Heldin C H. Effect of epidermal growth factor on membrane motility and cell locomotion in cultures of human clonal glioma cells. J Neurosci Res. 1982; 8(2-3): 491-507) (from now on denoted U343) were used in all cell experiments. This A431 cell line is reported to express approximately 2×10^6 EGFR per cell, and the U343 cell line express approximately 5.5×10^5 EGFR per cell. […]
(§2) Instead of trypsinising the cells, treatment with 0.5 ml ice-cold 0.1 M glycin-HCl buffer, pH 2.5 for 6 min at 0° C. was used to extract the membrane bound fraction of the conjugate. […] The remaining radioactivity, considered to be internalized radioactivity, was collected by treatment with 0.5 ml 1 M NaOH solution at 37° C. for about 60 min. […] The collected fractions were measured in an automated gamma counter.
(§3) In this study, the degree of internalization was estimated by acid wash. Radioactivity, which was removed from cells by an acidic buffer was considered as membrane-bound, and the rest as internalized. […] More than 50% of the radioactivity was internalized at 30 min after the start of incubation in the case of glioma U343 cells.

U343 cells [3] = assay: Cellular internalization by acid wash, U343 cells; assay type: cell-based, human
Description: as §1, §2, §3

A431 cells [4] = assay: Cellular retention of radioactivity after interrupted incubation, A431 cells; assay type: cell-based, human; details: 4 hours after interrupted incubation
Description: as §1, with “cell. The cells were cultured in Ham's F10 medium (Biochrom Kg), supplemented with 10% fetal calf serum (Sigma), L-glutamine (2 mM) and PEST (penicillin 100 IU/ml and streptomycin 100 μg/ml) both from Biochrom Kg. During cell culture and cell experiments (unless otherwise stated) cells were grown at 37° C. in incubators with humidified air, equilibrated with 5% CO2.” for “cell.”
(§4) After the incubation, the cells were washed thoroughly to eliminate unbound conjugate, and the incubation was then continued in fresh cell culture medium. After 0.5-4 h, the cells were trypsinized, counted and measured for radioactivity, as described above.
(§5) An initial drop of radioactivity, which was most likely due to dissociation of membrane-bound conjugates, was followed by a relatively constant amount of cell-bound ^68Ga.

U343 cells [5] = assay: Cellular retention of radioactivity after interrupted incubation, U343 cells; assay type: cell-based, human; details: 4 hours after interrupted incubation
Description: as §1, with “cell. The cells were cultured in Ham's F10 medium (Biochrom Kg), supplemented with 10% fetal calf serum (Sigma), L-glutamine (2 mM) and PEST (penicillin 100 IU/ml and streptomycin 100 μg/ml) both from Biochrom Kg. During cell culture and cell experiments (unless otherwise stated) cells were grown at 37° C. in incubators with humidified air, equilibrated with 5% CO2.” for “cell.”
as §4, §5

A431 tumor xenografts [6] = test system: A431 tumor xenografts; parameters: species or system Balb/c nu/nu mice; details: mouse, in vivo, iv, 0.5 h
Experimental: (§6) The in vivo studies were carried out in adult female Balb/c nu/nu mice (21-25 g) (Möllegård, Denmark) with tumor xenografts. All animals were handled according to the guidelines by the Swedish Animal Welfare Agency, and the experiments were approved by the local Ethics Committee for Animal Research. The mice were injected subcutaneously with A431 tumor cells (approximately 7 million cells per tumor in 100 μl cell culture medium) in both front legs. The tumors were allowed to grow for 12-13 days before the experiments were performed, and had then reached a weight of 0.1-0.8 g.
In order to estimate an influence of amount injected conjugate on uptake in tumors and normal tissues, a biodistribution study was performed. […] The mice were anesthetised by an intraperitoneal injection of a mixture of Rompun (1 mg/ml) and Ketalar (10 mg/ml), 0.2 ml per 10 g of animal weight, and killed by heart puncture. In addition to the tumors, blood, heart, pancreas, spleen, stomach, liver, kidneys, lungs, small and large intestine, muscle, bone and salivary gland were collected, weighed and measured in an automated gamma counter. The tails were also measured for radioactive content, in order to determine the accuracy of the injections. Organ values were calculated as percent of injected activity per g of organ (% IA/g).

A431 tumor xenografts [7] = assay: MicroPET imaging of tumor-bearing mice; assay type: in vivo
Experimental: as §6
Imaging was performed on a microPET R4 scanner (Concorde Microsystems, Inc.), with a computer-controlled bed and 10 cm transaxial and 8 cm axial field of view (FOV). […] After completion of the study the animals were decapitated under anesthesia and blood, liver, and kidney samples were collected for radioactivity measurements.
Scatter correction, random counts and dead time correction were all incorporated into the reconstruction algorithm. Radiation attenuation in each animal was measured with two rotating rod sources containing ^68 Ge/^68Ga before tracer injection and the images were corrected for radiation attenuation. […] Pharmacokinetic curves, representing the radioactivity concentrations (percentage of injected dose per gram of tissue), versus time after injection were determined accordingly. […]

In the case of “^68Ga-DOTA-EGF: recombinant human epidermal growth factor conjugated to the chelator DOTA (one to three DOTA) and labeled with 68Ga; PET tracer”, the “stability in PBS” value [1] is reported as “stable”, the internalization rate (A431 cells [2]) is reported as “rapid process” and the radioactivity internalized (U343 cells [3]; 30 min after the start of incubation) is reported as “More than 50%”. For the same substance, the internalization rate (U343 cells [3]; acid wash, compared to A431) was “faster”, the “cell-associated radioactivity (retention)” value (A431 cells [4]) was “more than 70%” and the “cell-associated radioactivity (retention)” value (U343 cells [5]) was “more than 70%”. For the same substance, the “radioactivity remaining in the circulation (blood)” value (A431 tumor xenografts [6]; 0.016 nmol per animal) was “less than 1 % IA/g”, the “uptake in the A431 tumour xenograft” value (A431 tumor xenografts [6]; 0.016 nmol per animal) was 1.51±0.16 % IA/g and the “radioactivity remaining in the circulation (blood)” value (A431 tumor xenografts [6]; 0.16 nmol per animal) was “less than 1 % IA/g”. For the same substance, the “uptake in the A431 tumour xenograft” value (A431 tumor xenografts [6]; 0.16 nmol per animal) was 2.69±0.29 % IA/g, the “organ distribution by microPET” value (A431 tumor xenografts [7]; 0.16 nmol injected, liver, kidneys, tumours, pharmacokinetic curves) was “Prominent uptake was observed in the liver and kidneys; also recorded: rapid distribution” and the “tumor visualization by microPET” value (A431 tumor xenografts [7]; 30 min after administration of 2.0 MBq, right and left leg tumors) was “visible with clear contrast”.
